Results published in the supplement of paper PMC10065799, “High-throughput profiling of sequence recognition by tyrosine kinases and SH2 domains using bacterial peptide display” (eLife, 2023).

What was measured:
SHP2-C SH2 = assay: SH2 binding enrichment of the phosphorylated peptide, bacterial display (enrichment ratio); higher = better substrate or ligand; peptides without Tyr show the background
c-Src SH2 = assay: as above
Grb2 SH2 = Grb2 SH2 (UniProt P62993); assay: as above
c-Abl (mouse) = assay: phosphorylation enrichment, bacterial display (enrichment ratio); higher = better substrate or ligand; peptides without Tyr show the background
Jak2 = Jak2 (UniProt O60674); assay: as above
MERTK = MERTK (UniProt Q12866); assay: as above
MERTK, sequence (Q12866 whole entry, looked up): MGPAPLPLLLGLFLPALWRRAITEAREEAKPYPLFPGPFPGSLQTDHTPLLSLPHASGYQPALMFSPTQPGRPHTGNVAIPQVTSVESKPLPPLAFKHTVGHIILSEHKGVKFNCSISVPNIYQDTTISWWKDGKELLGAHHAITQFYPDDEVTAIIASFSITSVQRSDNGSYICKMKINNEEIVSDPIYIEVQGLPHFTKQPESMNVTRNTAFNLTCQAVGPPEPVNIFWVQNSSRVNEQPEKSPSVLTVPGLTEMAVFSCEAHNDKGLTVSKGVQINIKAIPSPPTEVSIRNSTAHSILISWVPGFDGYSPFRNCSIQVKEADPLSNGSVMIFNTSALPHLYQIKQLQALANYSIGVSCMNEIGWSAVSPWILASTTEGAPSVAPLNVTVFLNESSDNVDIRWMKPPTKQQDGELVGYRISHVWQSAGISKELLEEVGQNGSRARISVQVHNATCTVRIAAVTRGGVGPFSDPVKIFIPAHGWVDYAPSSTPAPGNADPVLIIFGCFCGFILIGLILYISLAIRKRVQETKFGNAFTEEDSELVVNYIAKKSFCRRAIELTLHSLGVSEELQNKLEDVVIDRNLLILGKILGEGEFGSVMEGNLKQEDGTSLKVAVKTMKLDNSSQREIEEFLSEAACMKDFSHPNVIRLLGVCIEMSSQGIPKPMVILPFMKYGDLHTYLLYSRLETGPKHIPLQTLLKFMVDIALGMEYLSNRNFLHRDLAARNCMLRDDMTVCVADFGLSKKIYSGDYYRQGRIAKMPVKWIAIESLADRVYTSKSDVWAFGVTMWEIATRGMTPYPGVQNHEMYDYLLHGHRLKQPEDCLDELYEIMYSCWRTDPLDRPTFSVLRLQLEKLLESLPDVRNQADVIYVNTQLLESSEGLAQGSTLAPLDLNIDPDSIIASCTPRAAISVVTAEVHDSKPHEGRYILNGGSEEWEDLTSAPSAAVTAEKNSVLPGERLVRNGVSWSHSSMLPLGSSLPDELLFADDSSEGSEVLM

Fer (mouse) = assay: as above
EPHB1 = EPHB1 (UniProt P54762); assay: as above
EPHB1, sequence (P54762 whole entry, looked up): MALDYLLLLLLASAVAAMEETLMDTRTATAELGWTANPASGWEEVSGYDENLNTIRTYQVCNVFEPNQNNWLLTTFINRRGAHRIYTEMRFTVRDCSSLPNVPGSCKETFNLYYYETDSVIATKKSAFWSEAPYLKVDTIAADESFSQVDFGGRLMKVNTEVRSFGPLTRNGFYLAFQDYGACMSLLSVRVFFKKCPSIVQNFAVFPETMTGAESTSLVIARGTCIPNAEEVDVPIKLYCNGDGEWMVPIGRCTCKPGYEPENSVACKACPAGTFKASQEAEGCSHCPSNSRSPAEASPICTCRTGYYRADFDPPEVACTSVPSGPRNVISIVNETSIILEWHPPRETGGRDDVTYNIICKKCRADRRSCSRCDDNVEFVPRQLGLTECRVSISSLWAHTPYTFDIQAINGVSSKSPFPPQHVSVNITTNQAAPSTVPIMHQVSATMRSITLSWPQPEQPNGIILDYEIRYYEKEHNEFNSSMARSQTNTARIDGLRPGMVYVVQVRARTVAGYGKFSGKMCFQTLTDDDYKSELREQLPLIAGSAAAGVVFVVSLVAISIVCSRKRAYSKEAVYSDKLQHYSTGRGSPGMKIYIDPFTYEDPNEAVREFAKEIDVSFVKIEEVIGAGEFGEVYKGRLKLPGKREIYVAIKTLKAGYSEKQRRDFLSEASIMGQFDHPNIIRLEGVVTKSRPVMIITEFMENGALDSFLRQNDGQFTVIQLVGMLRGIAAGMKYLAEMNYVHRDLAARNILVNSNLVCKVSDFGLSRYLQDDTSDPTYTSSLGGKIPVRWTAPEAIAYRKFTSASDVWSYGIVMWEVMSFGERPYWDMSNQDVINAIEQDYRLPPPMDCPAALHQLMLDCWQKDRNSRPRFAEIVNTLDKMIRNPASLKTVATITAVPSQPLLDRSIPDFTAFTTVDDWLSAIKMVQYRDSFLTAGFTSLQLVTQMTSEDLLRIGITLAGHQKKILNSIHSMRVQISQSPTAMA

Fes = Fes (UniProt P07332); assay: as above
c-Src = assay: as above
AncSZ = assay: as above
FGFR3 = FGFR3 (UniProt P22607); assay: as above
FGFR3, sequence (P22607 whole entry, looked up): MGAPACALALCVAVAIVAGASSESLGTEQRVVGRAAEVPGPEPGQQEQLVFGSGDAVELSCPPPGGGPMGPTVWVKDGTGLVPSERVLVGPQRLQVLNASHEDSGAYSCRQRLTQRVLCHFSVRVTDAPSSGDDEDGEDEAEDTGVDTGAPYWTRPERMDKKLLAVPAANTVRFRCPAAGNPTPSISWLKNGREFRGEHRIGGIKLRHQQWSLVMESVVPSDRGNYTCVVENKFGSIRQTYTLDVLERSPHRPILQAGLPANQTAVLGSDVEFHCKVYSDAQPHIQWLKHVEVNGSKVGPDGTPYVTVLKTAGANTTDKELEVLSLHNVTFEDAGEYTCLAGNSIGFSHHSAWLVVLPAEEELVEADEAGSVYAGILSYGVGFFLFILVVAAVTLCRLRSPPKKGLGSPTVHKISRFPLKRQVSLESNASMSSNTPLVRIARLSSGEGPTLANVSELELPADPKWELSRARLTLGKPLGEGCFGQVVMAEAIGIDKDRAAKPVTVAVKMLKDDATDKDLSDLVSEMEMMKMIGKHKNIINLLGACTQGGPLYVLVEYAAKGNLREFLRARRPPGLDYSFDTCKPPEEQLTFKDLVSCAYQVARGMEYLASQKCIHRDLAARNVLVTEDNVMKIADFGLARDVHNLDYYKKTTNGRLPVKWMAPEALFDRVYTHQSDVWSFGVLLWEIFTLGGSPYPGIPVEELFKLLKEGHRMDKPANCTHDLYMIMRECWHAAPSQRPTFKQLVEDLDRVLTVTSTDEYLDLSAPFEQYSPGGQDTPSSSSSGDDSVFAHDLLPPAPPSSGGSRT

Hck = Hck (UniProt P08631); assay: as above
Hck, sequence (P08631 whole entry, looked up): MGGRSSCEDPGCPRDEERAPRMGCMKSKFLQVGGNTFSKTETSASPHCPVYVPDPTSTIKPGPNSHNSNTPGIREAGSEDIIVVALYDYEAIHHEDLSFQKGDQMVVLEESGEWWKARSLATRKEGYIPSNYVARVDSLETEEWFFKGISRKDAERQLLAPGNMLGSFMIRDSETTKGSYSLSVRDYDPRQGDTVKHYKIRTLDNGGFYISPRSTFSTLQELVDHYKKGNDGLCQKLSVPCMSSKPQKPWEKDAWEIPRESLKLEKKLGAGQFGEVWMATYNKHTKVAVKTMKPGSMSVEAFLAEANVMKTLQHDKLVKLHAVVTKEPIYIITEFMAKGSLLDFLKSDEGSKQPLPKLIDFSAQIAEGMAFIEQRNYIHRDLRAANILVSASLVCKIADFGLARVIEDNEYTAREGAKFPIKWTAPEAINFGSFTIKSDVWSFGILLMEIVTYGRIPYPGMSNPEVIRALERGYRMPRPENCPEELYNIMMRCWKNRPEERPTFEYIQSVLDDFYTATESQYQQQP

EPHB2 = EPHB2 (UniProt P29323); assay: as above
EPHB2, sequence (P29323 whole entry, looked up): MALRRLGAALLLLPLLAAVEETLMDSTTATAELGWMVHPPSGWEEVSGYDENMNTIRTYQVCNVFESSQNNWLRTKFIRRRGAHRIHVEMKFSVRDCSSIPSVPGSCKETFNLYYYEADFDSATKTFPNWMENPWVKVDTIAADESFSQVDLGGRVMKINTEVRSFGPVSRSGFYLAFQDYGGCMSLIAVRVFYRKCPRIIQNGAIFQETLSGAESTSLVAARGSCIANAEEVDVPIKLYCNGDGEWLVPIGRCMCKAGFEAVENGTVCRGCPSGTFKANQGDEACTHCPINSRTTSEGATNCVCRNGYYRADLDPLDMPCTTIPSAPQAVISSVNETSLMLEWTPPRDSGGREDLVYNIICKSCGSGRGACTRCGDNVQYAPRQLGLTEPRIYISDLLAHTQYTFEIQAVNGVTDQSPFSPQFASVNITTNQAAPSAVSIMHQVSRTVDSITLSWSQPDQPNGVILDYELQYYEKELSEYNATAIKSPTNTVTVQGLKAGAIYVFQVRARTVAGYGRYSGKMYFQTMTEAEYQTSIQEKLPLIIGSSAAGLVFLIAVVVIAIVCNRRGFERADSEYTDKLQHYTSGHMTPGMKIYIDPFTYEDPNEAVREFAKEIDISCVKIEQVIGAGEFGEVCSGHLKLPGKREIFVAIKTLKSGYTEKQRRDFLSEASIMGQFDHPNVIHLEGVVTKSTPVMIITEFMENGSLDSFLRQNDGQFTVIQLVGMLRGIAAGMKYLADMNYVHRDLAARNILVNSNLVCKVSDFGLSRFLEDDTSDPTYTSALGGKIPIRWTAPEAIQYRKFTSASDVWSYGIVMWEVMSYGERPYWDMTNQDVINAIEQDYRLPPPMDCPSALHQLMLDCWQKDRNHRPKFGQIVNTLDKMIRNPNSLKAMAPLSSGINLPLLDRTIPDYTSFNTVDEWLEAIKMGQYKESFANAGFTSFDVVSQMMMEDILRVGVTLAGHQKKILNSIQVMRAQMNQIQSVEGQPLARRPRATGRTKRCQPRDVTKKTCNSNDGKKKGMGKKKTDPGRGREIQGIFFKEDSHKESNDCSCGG

FGFR1 = FGFR1 (UniProt P11362); assay: as above
Fyn = Fyn (UniProt P06241); assay: as above
Fyn, sequence (P06241 whole entry, looked up, the tested form may be a part): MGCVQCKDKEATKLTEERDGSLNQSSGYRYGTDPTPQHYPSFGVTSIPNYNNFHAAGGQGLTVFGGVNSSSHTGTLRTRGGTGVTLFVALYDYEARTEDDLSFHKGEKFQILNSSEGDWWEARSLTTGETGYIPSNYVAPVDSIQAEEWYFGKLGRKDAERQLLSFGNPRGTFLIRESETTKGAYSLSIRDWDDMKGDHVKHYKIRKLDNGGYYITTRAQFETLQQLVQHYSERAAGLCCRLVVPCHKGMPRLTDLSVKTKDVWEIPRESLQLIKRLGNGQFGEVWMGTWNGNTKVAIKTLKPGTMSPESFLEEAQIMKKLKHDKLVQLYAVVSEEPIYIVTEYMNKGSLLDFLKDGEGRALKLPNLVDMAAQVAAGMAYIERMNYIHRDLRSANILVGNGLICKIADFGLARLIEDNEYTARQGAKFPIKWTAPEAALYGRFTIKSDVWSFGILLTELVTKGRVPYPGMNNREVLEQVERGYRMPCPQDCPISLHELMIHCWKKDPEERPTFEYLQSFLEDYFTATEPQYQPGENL
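Wherever SH2 binding enrichment of the phosphorylated peptide, bacterial display is given: peptide library displayed on the E. coli surface as eCPX fusions, selected cells deep-sequenced, score is each peptide's frequency after selection divided by its frequency in the input.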
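Wherever phosphorylation enrichment, bacterial display is given: 11-residue human phosphosite peptides and single-mutation variants displayed on the E. coli surface, counted by deep sequencing, each peptide's frequency after selection divided by its frequency in the unselected input library; frequency after pTyr selection over input frequency; kinase dosed for 20-30% of maximal phosphorylation in three min.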

SH2 binding enrichment (SHP2-C SH2) | SH2 binding enrichment (c-Src SH2) | SH2 binding enrichment (Grb2 SH2) | Sequence | phosphorylation enrichment (c-Abl (mouse)) | phosphorylation enrichment (Jak2) | phosphorylation enrichment (MERTK) | phosphorylation enrichment (Fer (mouse)) | phosphorylation enrichment (EPHB1) | phosphorylation enrichment (Fes) | phosphorylation enrichment (c-Src) | phosphorylation enrichment (AncSZ) | phosphorylation enrichment (FGFR3) | phosphorylation enrichment (Hck) | phosphorylation enrichment (EPHB2) | phosphorylation enrichment (FGFR1) | phosphorylation enrichment (Fyn)
1.01 | 0.954 | 1.22 | RHPYFFAPELL [ALB_Y174_Y174F] | 1.19 | 1.39 | 0.557 | 0.541 | 0.723 | 1.33 | 1.29 | 1.22 | 13.9 | 0.598 | 0.613 | 16.3 | 0.601
0.76 | 0.329 | 0.537 | RICRRYCQVLN [IQCF1_Y144_R141C] | 0.701 | 0.817 | 0.758 | 0.654 | 0.676 | 1.18 | 0.738 | 1.03 | 0.66 | 0.7 | 0.624 | 0.857 | 0.748
0.665 | 0.656 | 1.17 | RIDRKYKKVRF [F8_Y442_G439D] | 1.3 | 2.67 | 1.19 | 0.934 | 0.761 | 1 | 1.32 | 1.25 | 0.922 | 1.05 | 0.807 | 0.72 | 0.849
1.15 | 0.412 | 0.944 | RISPEYKQNEI [GJB1_Y243_L239I] | 1.06 | 0.983 | 0.598 | 0.687 | 0.998 | 1.07 | 0.604 | 1.15 | 0.836 | 0.607 | 0.73 | 0.866 | 0.922
1.24 | 1.42 | 1.55 | RKMSSYAFFVQ [HMGB1_Y16_G11R] | 0.667 | 0.755 | 1.19 | 0.899 | 0.436 | 1.58 | 0.542 | 1.01 | 0.737 | 0.466 | 0.352 | 0.644 | 0.822
0.363 | 0.296 | 0.295 | RKRQFYLFKGK [RSPO4_Y112_C107R_YF] | 1.25 | 1.06 | 1.22 | 0.787 | 0.741 | 0.949 | 0.809 | 1.15 | 0.803 | 1.19 | 0.71 | 0.555 | 1.14
0.539 | 0.871 | 0.848 | RLGVTYEQALA [MAP2_Y996_G991R] | 0.965 | 1.15 | 0.737 | 0.535 | 0.729 | 1 | 1.05 | 1.36 | 0.825 | 0.56 | 1.81 | 0.721 | 0.77
0.718 | 0.657 | 0.89 | RLLRGHDQSAF [HLA-C_Y137_Y137H_YF] | 0.653 | 0.732 | 0.421 | 0.357 | 0.465 | 0.738 | 0.573 | 0.79 | 0.47 | 0.566 | 0.389 | 0.427 | 0.501
0.727 | 5.06 | 1.1 | RLLRGYDQLAY [HLA-C_Y137_S140L] | 0.477 | 0.649 | 0.581 | 0.758 | 0.719 | 1.02 | 0.45 | 1.29 | 0.976 | 0.637 | 0.67 | 0.65 | 0.735
2.1 | 1.8 | 2.4 | RLLVFYPWTQR [HBB_Y36_V35F] | 1.02 | 1.73 | 0.512 | 0.65 | 0.794 | 1.47 | 0.509 | 2.05 | 0.891 | 0.557 | 0.938 | 0.877 | 0.616
2.26 | 1.47 | 2.08 | RLLVVYPSTQR [HBB_Y36_W38S] | 0.899 | 1.04 | 0.753 | 0.7 | 0.602 | 1.75 | 0.646 | 1.19 | 0.94 | 1.17 | 0.931 | 1.07 | 0.802
2.19 | 1.76 | 2.31 | RLLVVYPWTQK [HBG1_Y36_R41K] | 0.617 | 0.63 | 0.32 | 0.468 | 0.581 | 0.926 | 0.388 | 0.842 | 0.69 | 0.547 | 0.529 | 0.473 | 0.508
1.55 | 1.01 | 1.68 | RLLVVYTWTQR [HBB_Y36_P37T] | 0.862 | 1.08 | 0.694 | 0.842 | 0.656 | 2.12 | 0.509 | 1.81 | 0.941 | 0.915 | 1.12 | 0.661 | 0.739
1.02 | 0.923 | 1.17 | RMDGTYACSYT [FLNB_Y704] | 1.47 | 0.92 | 0.757 | 0.617 | 0.876 | 1.02 | 3.25 | 0.934 | 0.579 | 1.74 | 0.85 | 0.538 | 1.87
0.8 | 0.572 | 0.82 | RNIQQCNSFVS [PRKAR1A_Y373_Y373C] | 0.922 | 1.4 | 0.66 | 0.773 | 0.718 | 1.18 | 0.707 | 1.28 | 0.662 | 0.711 | 0.634 | 0.501 | 0.506
0.504 | 0.629 | 0.918 | RNLDTYQKRLR [PLA2G2D_Y126] | 0.762 | 0.661 | 0.474 | 0.307 | 0.831 | 0.61 | 0.463 | 0.617 | 0.484 | 0.55 | 0.279 | 0.373 | 0.452
1.69 | 2.98 | 0.999 | RPGSGYTKIMR [PKLR_Y564_N566K] | 0.396 | 0.41 | 0.48 | 0.42 | 0.415 | 0.525 | 0.348 | 0.546 | 0.368 | 0.409 | 0.303 | 0.372 | 0.404
